Test [1] deals with T1, purified WT mTfR-1 (ELISA coat) (mouse, UniProt Q62351 89-763). The test is described as follows: ELISA, coated purified WT mTfR1. The protocol: Serial dilutions the VNAR-Fc fusion protein in blocking buffer (PBS-0.1% Tween+2.5% milk) were exposed to pre-blocked Nunc Maxisorp 96-well plates coated with the M1, M2 and M3 mutants at 1 μg/mL. After washing in PBS-0.1% Tween-20, binding of Clone C-hFc fusion was detected using an anti-human IgG (Fc specific) peroxidase antibody (Sigma-Aldrich) and the plates were developed using the chromogenic substrate TMB. Absorbance at 450 nm was recorded using an Envision multi-well reader (Perkin Elmer) and EC50s were calculated by fitting curves (non-linear regression) using GraphPad Prism®.
The binding of Clone C compared to the 8D3 antibody was tested on purified WT mTfR1 in addition to the three mutants by ELISA (FIG. 26).
(ELISA stands for enzyme-linked immunosorbent assay.)

The target in test [2] is T2, purified mTfR1 mutant M2 (NAS) (mouse, UniProt Q62351 89-763).
T2 construct: also called G254A
The test is described as follows: ELISA, coated purified mTfR-1.

Test [3] addresses T3, purified mTfR1 mutant M3 (NGA) (mouse, UniProt Q62351 89-763).
T3 construct: also called S255A
The test is described as follows: ELISA, coated purified mTfR-1.

Test [4] addresses T1, purified WT mTfR-1 (ELISA coat). As to the kind of experiment: ELISA, coated purified mTfR-1.
In test [5] the target is T2, purified mTfR1 mutant M2 (NAS). As to the kind of experiment: ELISA, coated purified mTfR-1. This is another data set of the same source.
Test [6] deals with T3, purified mTfR1 mutant M3 (NGA). As to the kind of experiment: ELISA, coated purified mTfR-1. The source holds these as a separate data set.
Test [7] has as its target T1, purified WT mTfR-1 (ELISA coat). As to the kind of experiment: ELISA, coated purified mTfR-1. The source holds these as a separate data set.
Test [8] deals with T4, purified mTfR1 mutant M1 (AGS) (mouse, UniProt Q62351 89-763).
T4 construct: also called N253A
The test is described as follows: ELISA, coated purified mTfR-1.

The target of test [9] is T2, purified mTfR1 mutant M2 (NAS). As to the kind of experiment: ELISA, plate coated with purified mTfR-1 mutant M2 (NAS), serial dilution of the binder; y axis Norm. Vmax OD at 650nm.

Changes are numbered by the printed parent chain. Where two headings read alike, the source gives them in different places.

As usually defined, the EC50 is the concentration needed to bring the measured effect to its halfway point. Higher therefore signals a less potent agent. Broadly, the EC50 (read off the curve) is the concentration that produces a half-maximal response. A higher EC50 (read off the curve) goes with a less potent agent.

T3 sequence (Q62351 other isoform, or with tags, fused parts or gaps mutant): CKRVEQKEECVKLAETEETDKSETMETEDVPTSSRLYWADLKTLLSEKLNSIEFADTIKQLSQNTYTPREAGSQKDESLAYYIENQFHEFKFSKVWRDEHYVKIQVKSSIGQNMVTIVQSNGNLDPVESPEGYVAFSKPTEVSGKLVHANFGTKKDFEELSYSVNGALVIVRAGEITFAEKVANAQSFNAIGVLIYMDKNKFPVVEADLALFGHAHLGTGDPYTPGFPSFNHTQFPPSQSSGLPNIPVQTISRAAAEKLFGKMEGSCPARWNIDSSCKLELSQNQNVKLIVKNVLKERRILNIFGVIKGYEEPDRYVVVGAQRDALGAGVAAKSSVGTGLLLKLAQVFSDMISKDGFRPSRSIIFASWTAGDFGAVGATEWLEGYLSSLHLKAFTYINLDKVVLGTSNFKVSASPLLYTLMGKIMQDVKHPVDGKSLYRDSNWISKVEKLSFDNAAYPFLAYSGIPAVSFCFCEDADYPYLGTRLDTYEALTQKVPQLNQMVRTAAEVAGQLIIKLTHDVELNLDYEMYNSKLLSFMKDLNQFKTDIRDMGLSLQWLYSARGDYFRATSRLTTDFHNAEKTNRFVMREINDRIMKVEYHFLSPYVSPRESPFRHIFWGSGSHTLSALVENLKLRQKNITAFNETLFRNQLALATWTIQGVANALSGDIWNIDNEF
T2 sequence (Q62351 other isoform, or with tags, fused parts or gaps mutant): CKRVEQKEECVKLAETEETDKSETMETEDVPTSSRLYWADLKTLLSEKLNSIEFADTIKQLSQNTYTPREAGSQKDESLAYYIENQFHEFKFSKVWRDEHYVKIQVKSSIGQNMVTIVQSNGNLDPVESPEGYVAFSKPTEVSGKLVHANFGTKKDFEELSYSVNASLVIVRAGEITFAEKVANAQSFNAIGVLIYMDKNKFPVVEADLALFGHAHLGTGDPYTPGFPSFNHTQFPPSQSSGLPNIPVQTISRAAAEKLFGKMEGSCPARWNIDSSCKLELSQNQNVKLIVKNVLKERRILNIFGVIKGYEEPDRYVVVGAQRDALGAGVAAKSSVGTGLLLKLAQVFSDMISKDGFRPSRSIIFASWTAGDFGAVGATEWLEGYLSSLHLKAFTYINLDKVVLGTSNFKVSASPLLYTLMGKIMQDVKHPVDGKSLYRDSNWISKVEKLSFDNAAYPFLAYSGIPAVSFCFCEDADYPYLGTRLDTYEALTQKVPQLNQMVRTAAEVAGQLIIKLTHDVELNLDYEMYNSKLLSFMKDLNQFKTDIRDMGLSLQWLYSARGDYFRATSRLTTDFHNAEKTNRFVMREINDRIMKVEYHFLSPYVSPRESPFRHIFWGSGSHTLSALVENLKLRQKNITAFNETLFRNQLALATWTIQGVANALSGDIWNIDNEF
T1 sequence (Q62351 89-763): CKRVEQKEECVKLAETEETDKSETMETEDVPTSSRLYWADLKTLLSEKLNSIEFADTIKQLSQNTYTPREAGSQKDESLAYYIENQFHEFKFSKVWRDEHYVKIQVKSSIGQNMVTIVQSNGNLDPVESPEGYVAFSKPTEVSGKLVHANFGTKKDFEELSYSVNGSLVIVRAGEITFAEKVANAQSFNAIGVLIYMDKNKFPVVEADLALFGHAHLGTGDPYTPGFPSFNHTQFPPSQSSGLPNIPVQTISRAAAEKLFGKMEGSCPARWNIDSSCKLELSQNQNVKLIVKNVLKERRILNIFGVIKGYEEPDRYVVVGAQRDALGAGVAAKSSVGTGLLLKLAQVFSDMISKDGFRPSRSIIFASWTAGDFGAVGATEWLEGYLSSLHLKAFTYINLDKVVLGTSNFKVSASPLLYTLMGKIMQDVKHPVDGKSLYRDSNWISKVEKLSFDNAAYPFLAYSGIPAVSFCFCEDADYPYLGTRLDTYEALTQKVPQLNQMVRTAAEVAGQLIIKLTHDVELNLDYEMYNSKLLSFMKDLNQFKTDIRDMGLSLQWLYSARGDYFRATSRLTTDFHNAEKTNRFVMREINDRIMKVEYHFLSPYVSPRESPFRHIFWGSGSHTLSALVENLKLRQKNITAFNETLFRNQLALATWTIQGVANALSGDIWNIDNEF
T4 sequence (Q62351 other isoform, or with tags, fused parts or gaps mutant): as the sequence (Q62351 89-763) above, with N165A counted along it

B1: Clone C VNAR-hFc fusion (Fc fusion, not shown: a dimerising Fc or GST)
chain: ARVDQTPQTITKETGESLTINCVLRDSNCALSSTYWYRKKSGSTNEENISKGGRYVETVNSGSKSFSLRINDLTVEDSGTYRCNVVQYPSYNNYFWCDVYGDGTAVTVN
notes: bivalent VNAR-Fc; also called Clone C-hFc
The molecule B1 registered an EC50 in [1] of 65400 pM.

B2: Clone C variant 13 VNAR-hFc (Fc fusion, not shown: a dimerising Fc or GST)
chain: B1 chain with S90Q, Y91Q, N92D
notes: also called Clone C v13; Clone C var; 13
As for B2, the EC50 in test [2] stood at 13000 pM; in test [3], 790 pM; in [4], 800 pM.

B3: Clone C variant 18 VNAR-hFc (Fc fusion, not shown: a dimerising Fc or GST)
chain: B1 chain with S90Q, N92P
notes: also called Clone C v18; Clone C var; 18
As to B3, the EC50 in test [2] came out at 200000 pM; in [3], 2600 pM; in test [4], 690 pM.

B4: 8D3 antibody (anti-mouse TfR-1 control; 8D3-hFc formatted antibody) (antibody, V domains shown)
VH: EVQLVESGGGLVQPGNSLTLSCVASGFTFSNYGMHWIRQAPKKGLEWIAMIYYDSSKMNYADTVKGRFTISRDNSKNTLYLEMNSLRSEDTAMYYCAVPTSHYVVDVWGQGVSVTVSS
VL: DIQMTQSPASLSASLEEIVTITCQASQDIGNWLAWYQQKPGKSPQLLIYGATSLADGVPSRFSGSRSGTQFSLKISRVQVEDIGIYYCLQAYNTPWTFGGGTKLELK
In the case of B4, the concentration giving a half-maximal response (EC50) in test [5] worked out at 330 pM; in [6] it was 510 pM; in [7], 490 pM; in test [8], 350 pM; in test [1] it was 11100 pM. In addition, in [9], the “EC50 (read off the curve)” value was ~4000 pM.

Source of the values: patent US20210403591A1 (OSSIANIX, published 2021).
